The values that follow are results of earlier work, collected in paper PMC11939847.

For the data set, the target named is BRD4 ET (Homo sapiens) (UniProt O60885). Description: SPR.

The Kd is the constant that tells how readily two partners part at equilibrium. LKIRL peptide: the Kd is 145 nM.
